Results from JP2018076351A (dated 2018).
Each block holds one binder with its values, some of them ahead of it.

Experiments:
[1] = biological target: human PCSK9 (wild type) (human); experiment: KinExA, solution equilibrium, PCSK9-coated beads
[2] = biological target: human PCSK9 (wild type) (human); experiment: Biacore at pH 6.0 (HBS-P with 0.01 % BSA); KD from nonlinear regression of competition curves, n=1
[3] = biological target: cynomolgus monkey PCSK9 (cynomolgus monkey, UniProt A0A7N9D9N8 150-747); experiment: KinExA, solution equilibrium, PCSK9-coated beads; KD adjusted for 50 % active cPCSK9

Kd [1]: 15 pM
Kd [2]: 0.029 nM
Kd [3]: 16 pM
B1: 16F12 (antibody, V domains shown)
VH: QVHLVESGGGVVQPGRSLRLSCAASGFTFNSFGMHWVRQAPGKGLEWVALIWSDGSDEYYADSVKGRFTISRDNSKNTLYLQMNSLRAEDTAVYYCARAIAALYYYYGMDVWGQGTTVTVSS
VL: QSVLTQPPSVSAAPGQKVTISCSGSSSNIGNNFVSWYQQLPGTAPKLLIYDYNKRPSGIPDRFSGSKSGTSATLGITGLQTGDEADYYCGTWDSSLSAYVFGTGTRVTVLQ

Kd [1]: 3 pM
Kd [2]: 0.0125 nM
Kd [3]: 2 pM
B2: 31H4 (antibody, V domains shown)
VH: EVQLVESGGGLVKPGGSLRLSCAASGFTFSSYSMNWVRQAPGKGLEWVSSISSSSSYISYADSVKGRFTISRDNAKNSLYLQMNSLRAEDTAVYFCARDYDFWSAYYDAFDVWGQGTMVTVSS
VL: QSVLTQPPSVSGAPGQRVTISCTGSSSNIGAGYDVHWYQQLPGTAPKLLISGNSNRPSGVPDRFSGSKSGTSASLAITGLQAEDEADYYCQSYDSSLSGSVFGGGTKLTVLQ
